From patent publication US20230357414A1 (SYNTHEKINE, published 2023) come the findings set out here.

Residue numbers refer to the chain shown, from its start.

The assay deals with T1, extracellular domain of mouse IL12Rb2 (614 amino acids, amino acids 24-637 of the mIL12Rb2 precursor, UniProt … (mouse, UniProt P97378 24-637)).
T1 construct: also called mIL12Rb2 ECD; mIL12Rb2 ECD antigen
T1 sequence: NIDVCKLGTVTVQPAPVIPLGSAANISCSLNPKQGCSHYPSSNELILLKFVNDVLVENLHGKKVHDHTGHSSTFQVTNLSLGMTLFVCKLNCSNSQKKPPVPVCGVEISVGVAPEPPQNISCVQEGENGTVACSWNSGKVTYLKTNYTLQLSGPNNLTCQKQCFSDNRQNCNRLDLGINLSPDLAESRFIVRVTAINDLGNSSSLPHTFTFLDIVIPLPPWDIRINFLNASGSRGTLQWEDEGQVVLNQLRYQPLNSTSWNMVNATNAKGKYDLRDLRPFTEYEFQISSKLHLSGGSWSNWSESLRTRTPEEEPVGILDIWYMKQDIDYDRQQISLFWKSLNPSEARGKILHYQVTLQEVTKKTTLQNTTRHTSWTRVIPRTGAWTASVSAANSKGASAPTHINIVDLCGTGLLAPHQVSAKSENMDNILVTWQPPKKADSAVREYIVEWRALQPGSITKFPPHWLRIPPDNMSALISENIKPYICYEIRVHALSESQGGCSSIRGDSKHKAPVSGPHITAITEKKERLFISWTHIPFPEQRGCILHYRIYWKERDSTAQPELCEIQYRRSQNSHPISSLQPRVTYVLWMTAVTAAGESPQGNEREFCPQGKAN
Briefly: periplasmic extract ELISA on antigen-coated plate; positive if A450 at least threefold over PBS-coated control. The protocol: Upon completion of the biopanning of Example 3, three 96-well plates of individual phage clones were isolated in order to perform periplasmic extract ELISA (PE-ELISA) on IL12Rb2 coated plates to identify positive VHH binders that selectively bound IL12Rb2. A 96-well plate was coated with IL12Rb2 and PBS under the same conditions. Next, wells were blocked at 37° C. for 1 h. Then, 100 μl of extracted antibodies was added to each well and incubated for 1 h. Subsequently, 100 μl of anti-tag polyclonal antibody conjugated to HRP was added to each well and incubated at 37° C. for 1 h. Plates were developed with TMB substrate. The reaction was stopped by the addition of H2SO4. Absorbance at 450 nm was read on a microtiter plate reader. Antibodies with absorbance of the antigen-coated well at least threefold greater than PBS-coated control are VHHs that specifically bind to IL 12Rb2. Positive clones were sequenced, and sequences analyzed to identify unique clonotypes

B1: mIL12Rb2 VHH5 (VHH)
VHH: QVQLQESGGGSVQAGGSLRLSCAASGITYRGVWMGWFRQAPGKEREGVATIYTGSGHTYYADSVKGRFTISQDNAKNTVYLQMNSLKPEDTAMYYCAARTVGGTFYTLAADSFNTWGQGTQVTVSS
notes: Camel VHH, tested as a periplasmic extract of a phage clone; also called anti-mouse IL12Rb2 VHH5; not shown: HA/His tag encoded by the pMECS phagemid
In the case of B1, the binding result is “binds”.

B2: mIL12Rb2 VHH10 (VHH)
VHH: QVQLQESGGGSVQAGGSLRLSCAASGYTFSNHHMGWFRQAPGKEREGVAAIYTGAGNIYYADSVKDRFTISKDTAKNTLYLQMNSLTPEDTGMYYCAADLTRWYSGGWRDPRGYKYWGQGTQVTVSS
notes: Camel VHH, tested as a periplasmic extract of a phage clone; also called anti-mouse IL12Rb2 VHH10; not shown: HA/His tag encoded by the pMECS phagemid
As to B2, the binding result is on record as “binds”.

B3: mIL12Rb2 VHH12 (VHH)
VHH: B2 VHH with S11V, A14P
notes: Camel VHH, tested as a periplasmic extract of a phage clone; also called anti-mouse IL12Rb2 VHH12; not shown: HA/His tag encoded by the pMECS phagemid
With B3, the binding result is “binds”.

B4: mIL12Rb2 VHH11 (VHH)
VHH: B2 VHH with S11P
notes: Camel VHH, tested as a periplasmic extract of a phage clone; also called anti-mouse IL12Rb2 VHH11; not shown: HA/His tag encoded by the pMECS phagemid
Turning to B4, the binding result was “binds”.

B5: mIL12Rb2 VHH13 (VHH)
VHH: B2 VHH with A24V
notes: Camel VHH, tested as a periplasmic extract of a phage clone; also called anti-mouse IL12Rb2 VHH13; not shown: HA/His tag encoded by the pMECS phagemid
With B5, the binding result is “binds”.

B6: mIL12Rb2 VHH15 (VHH)
VHH: QVQLQESGGGSVQDGGSLRLSCAASGDIYARNCMGWFRQAPGKEREKIAVADTGGRSPYYADSVKGRFTISRDNAKNTVDLQMNSLKPEDTAVYYCAAGPLVPVVNTAARCVYEYWGQGTQVTVSS
notes: Camel VHH, tested as a periplasmic extract of a phage clone; also called anti-mouse IL12Rb2 VHH15; not shown: HA/His tag encoded by the pMECS phagemid
B6: the binding result is given as “binds”.

B7: mIL12Rb2 VHH14 (VHH)
VHH: QVQLQESGGGSVQAGGSLRLSCAASGATNSNRHMGWFRQAPGKEREGVAAIYTGYTGGGNTYYADSVRDRFTISQDNAKNTLYLQMNSLTPEDTAMYYCAADLTRWYSGGWRDPRGYKYWGQGTQVTVSS
notes: Camel VHH, tested as a periplasmic extract of a phage clone; also called anti-mouse IL12Rb2 VHH14; not shown: HA/His tag encoded by the pMECS phagemid
For B7, the binding result is listed as “binds”.

B8: mIL12Rb2 VHH16 (VHH)
VHH: B7 VHH with R68K
notes: Camel VHH, tested as a periplasmic extract of a phage clone; also called anti-mouse IL12Rb2 VHH16; not shown: HA/His tag encoded by the pMECS phagemid
B8: the binding result is listed as “binds”.
